In patent US20250223359A1 (published 2025):

T1: human CD19 (human, UniProt P15391 20-556)
T1 construct: whole, on cells; also called huCD19; hCD19
T1 sequence (looked up): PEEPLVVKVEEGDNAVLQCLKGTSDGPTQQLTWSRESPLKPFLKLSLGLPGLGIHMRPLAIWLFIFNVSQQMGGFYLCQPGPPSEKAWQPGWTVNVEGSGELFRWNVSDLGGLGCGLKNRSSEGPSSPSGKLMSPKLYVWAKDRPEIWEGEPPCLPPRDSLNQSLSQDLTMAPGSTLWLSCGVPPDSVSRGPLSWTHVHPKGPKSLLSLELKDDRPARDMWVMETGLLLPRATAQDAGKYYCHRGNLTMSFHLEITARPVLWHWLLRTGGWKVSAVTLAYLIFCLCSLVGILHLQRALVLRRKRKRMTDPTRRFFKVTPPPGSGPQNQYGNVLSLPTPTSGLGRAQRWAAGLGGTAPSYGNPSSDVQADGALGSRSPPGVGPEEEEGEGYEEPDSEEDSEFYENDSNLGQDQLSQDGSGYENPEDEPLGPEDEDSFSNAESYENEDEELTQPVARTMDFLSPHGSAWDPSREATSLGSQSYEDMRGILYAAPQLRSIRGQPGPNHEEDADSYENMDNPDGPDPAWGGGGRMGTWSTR

B1: Human CD2 (recombinant extracellular domain, Avi-tagged) (receptor)
chain: KEITNALETWGALGQDINLDIPSFQMSDDIDDIKWEKTSDKKKIAQFRKEKETFKEKDTYKLFKNGTLKIKHLKTDDQDIYKVSIYDTKGKNVLEKIFDLKIQERVSKPKISWTCINTTLTCEVMNGTDPELNLYQDGKHLKLSQRVITHKWTTSLSAKFKCTAGNKVSKESSVEPVSCPEKGLD
modifications: site selectively biotinylated during expression (C-terminal Avi-Tag, BirA co-transfection)
notes: Produced in HEK293 cells; also called recombinant human CD2
B2: CD58 Full ECD (ligand)
chain: SQQIYGVVYGNVTFHVPSNVPLKEVLWKKQKDKVAELENSEFRAFSSFKNRVYLDTVSGSLTIYNLTSSDEDEYEMESPNITDTMKFFLYVLESLPSPTLTCALTNGSIEVQCMIPEHYNSHRGLIMYSWDCPMEQCKRNSTSIYFKMENDLPQKIQCTLSNPLFNTTSSIILTTCIPSSGHSRHRGGGGSHHHHHHHH

Legend:
human CD19 [1] = biological target: T1, human CD19; assay: flow cytometry on murine 300.19 cells overexpressing human CD19; serial dilutions; anti-human Fc Alexa-647 secondary
human CD19 [2] = biological target: T1, human CD19; assay: flow cytometry on 300.19 cells overexpressing human CD19 (figure legend)
CD58 Full ECD = biological target: B2; assay: ITC; 100 uM CD2 titrated into 10 uM CD58 variant in HBS
Experimental: (§1) To ensure the binding affinity remained uncompromised by the additional of the stabilizing disulfide variance, isothermal calorimetry (ITC) was performed on the resulting recombinant CD58 proteins to determine their apparent KD and binding stoicheometry (n) to recombinant human CD2.
(§2) Briefly, recombinant human CD2 and recombinant human CD58 variants were dialyzed into HEPES-buffered saline (HBS). CD2 was diluted to final concentration of 100 μM, CD58 variants were diluted to 10 μM. CD2 was titrated into 10 μM of CD58 variants via multiple injections and ΔH (kcal/mole) determined using a MicroCal VP-ITC isothermal titration calorimeter (Malvern). Titrations of CD2 into HBS were used as a reference and KD and n determined from the resulting data.

[3] = biological target: B1; assay: as above
Experimental: as §1, §2

| Binder | n (binding stoichiometry) [3] | Kd [3] | other results |
| --- | --- | --- | --- |
| CD3hi TSP2 (R variant) (other, also called CD19_NEG218_CD3_16nM-CD58 Trispecific; αCD19(NEG218)-αCD3-CD58IgV) heavy: EVQLVQSGAEVKKPGESLKISCKASGYSFTNYWMNWVRQMPGKGLEWMGMIHPSDSEIRLNQKFQGQVTLSVDKSIGTAYMQWSSLKASDTAMYYCSRWYYLSSPMDYWGQGTTVTVSSASTKGPSVFPLAPSSKSTSGGTAALGCLVKDYFPEPVTVSWNSGALTSGVHTFPAVLQSSGLYSLSSVVTVPSSSLGTQTYICNVNHKPSNTKVDKRVEPKSCGGGGSGGGGSEVQLVESGGGLVQPGGSLKLSCAASGFTFNTYAMNWVRQASGKGLEWVGRIRSKYNNYATYYADSVKDRFTISRDDSKSTLYLQMNSLKTEDTAVYYCVRHGNFGNSYVSWFAYWGQGTLVTVSSGGGGSGGGGSGGGGSGGGGSQAVVTQEPSLTVSPGGTVTLTCRSSTGAVTTSNYANWVQQKPGQAPRGLIGGTNKRAPWTPARFSGSLLGDKAALTLSGAQPEDEAEYFCALWYSNLWVFGGGTKLTVLGGGGSDKTHTCPPCPAPELLGGPSVFLFPPKPKDTLMISRTPEVTCVVVAVSHEDPEVKFNWYVDGVEVHNAKTKPREEQYASTYRVVSVLTVLHQDWLNGKEYKCKVSNKALAAPIEKTISKAKGQPREPQVCTLPPSREEMTKNQVSLSCAVKGFYPSDIAVEWESNGQPENNYKTTPPVLDSDGSFFLVSKLTVDKSRWQQGNVFSCSVMHEALHNHYTQKSLSLSPGK light: not shown SQQIYGVVYGNVTFHVPSNVPLKEVLWKKQKDKVAELENSEFRAFSSFKNRVYLDTVSGSLTIYNLTSSDEDEYEMESPNITDTMKFFLYVLESGGGGSDKTHTCPPCPAPELLGGPSVFLFPPKPKDTLMISRTPEVTCVVVAVSHEDPEVKFNWYVDGVEVHNAKTKPREEQYASTYRVVSVLTVLHQDWLNGKEYKCKVSNKALAAPIEKTISKAKGQPREPQVYTLPPCREEMTKNQVSLWCLVKGFYPSDIAVEWESNGQPENNYKTTPPVLDSDGSFFLYSKLTVDKSRWQQGNVFSCSVMHEALHNRYTQKSLSLSPGK | – | – | binding result (human CD19 [1]): binds |
| CD3hi TSP1 (R variant) (other, also called CD19_NEG258_CD3_16nM-CD58 Trispecific; αCD19(NEG258)-αCD3(16 nM)-αCD58IgV) heavy: QVQLVQSGAEVKKPGASVKVSCKASGYTFTTYWIQWVRQAPGQRLEWMGAVYPGDADTRYTQKFQGRVTLTADRSASTAYMELSSLRSEDTAVYYCGRDAGLEYYALDYWGQGTLVTVSSASTKGPSVFPLAPSSKSTSGGTAALGCLVKDYFPEPVTVSWNSGALTSGVHTFPAVLQSSGLYSLSSVVTVPSSSLGTQTYICNVNHKPSNTKVDKRVEPKSCGGGGSGGGGSEVQLVESGGGLVQPGGSLKLSCAASGFTFNTYAMNWVRQASGKGLEWVGRIRSKYNNYATYYADSVKDRFTISRDDSKSTLYLQMNSLKTEDTAVYYCVRHGNFGNSYVSWFAYWGQGTLVTVSSGGGGSGGGGSGGGGSGGGGSQAVVTQEPSLTVSPGGTVTLTCRSSTGAVTTSNYANWVQQKPGQAPRGLIGGTNKRAPWTPARFSGSLLGDKAALTLSGAQPEDEAEYFCALWYSNLWVFGGGTKLTVLGGGGSDKTHTCPPCPAPELLGGPSVFLFPPKPKDTLMISRTPEVTCVVVAVSHEDPEVKFNWYVDGVEVHNAKTKPREEQYASTYRVVSVLTVLHQDWLNGKEYKCKVSNKALAAPIEKTISKAKGQPREPQVCTLPPSREEMTKNQVSLSCAVKGFYPSDIAVEWESNGQPENNYKTTPPVLDSDGSFFLVSKLTVDKSRWQQGNVFSCSVMHEALHNHYTQKSLSLSPGK light: not shown SQQIYGVVYGNVTFHVPSNVPLKEVLWKKQKDKVAELENSEFRAFSSFKNRVYLDTVSGSLTIYNLTSSDEDEYEMESPNITDTMKFFLYVLESGGGGSDKTHTCPPCPAPELLGGPSVFLFPPKPKDTLMISRTPEVTCVVVAVSHEDPEVKFNWYVDGVEVHNAKTKPREEQYASTYRVVSVLTVLHQDWLNGKEYKCKVSNKALAAPIEKTISKAKGQPREPQVYTLPPCREEMTKNQVSLWCLVKGFYPSDIAVEWESNGQPENNYKTTPPVLDSDGSFFLYSKLTVDKSRWQQGNVFSCSVMHEALHNRYTQKSLSLSPGK | – | – | binding result (human CD19 [2]): binds |
| B1 | – | – | Kd (CD58 Full ECD): 570 nM |
| B2 | 0.92 | – | – |
| CD58_IgV (ligand, also called CD58 domain 1; IgV WT) SQQIYGVVYGNVTFHVPSNVPLKEVLWKKQKDKVAELENSEFRAFSSFKNRVYLDTVSGSLTIYNLTSSDEDEYEMESPNITDTMKFFLYVLESGGGGSHHHHHHHH | 0.96 | 610 nM | – |
| CD58 IgV V45C_M105C (ligand, Disulfide-stabilized variant) SQQIYGVVYGNVTFHCPSNVPLKEVLWKKQKDKVAELENSEFRAFSSFKNRVYLDTVSGSLTIYNLTSSDEDEYECESPNITDTMKFFLYVLESGGGGSHHHHHHHH | 0.97 | 880 nM | – |
| CD58 IgV V45C_M114C (ligand, Disulfide-stabilized variant) SQQIYGVVYGNVTFHCPSNVPLKEVLWKKQKDKVAELENSEFRAFSSFKNRVYLDTVSGSLTIYNLTSSDEDEYEMESPNITDTCKFFLYVLESGGGGSHHHHHHHH | 0.88 | 380 nM | – |
| CD58 IgV V54C_G88C (ligand, Disulfide-stabilized variant) SQQIYGVVYGNVTFHVPSNVPLKECLWKKQKDKVAELENSEFRAFSSFKNRVYLDTVSCSLTIYNLTSSDEDEYEMESPNITDTMKFFLYVLESGGGGSHHHHHHHH | 0.83 | 600 nM | – |
